# Data from US20100322957A1.
# Biological target: NLRC4 (mouse) (UniProt Q3UP24)
row,Substance,IL-1β secretion (ELISA) by LPS-primed BMM one hour after protein transfection
1,"FliC (purified, histidine-tagged) (from UniProt P06179) (ligand)",800 pg/mL
2,"PrgJ (purified, histidine-tagged) (from UniProt P41785) (ligand)",800 pg/mL
